Experimental data reported in patent US20250327097A1, “ORGANISMS PRODUCING LESS CROTONIC ACID” (Global Bioenergies, priority 2021, published 2025).
Changes are numbered by the printed parent chain. Names may count otherwise.

B1: I283T-P284D-i284aP-N287P-S322T-N388M-E421V-R422F-C430N-L432F-L434W-S436N-H461T-dG462-A463T (protein)
chain: MFLKSLREQINLLKRQGDLRIINRPVDSYLEAAAIIRRSTETKAPVPLMTNIKGYPGCSIVGGLAALSSNPEYPLSRVAMSLGLSTTASAQSIVQYLIDGLKKTPYLPVEIDSNSAPCKQNILRGEDASLAHFPIPQVHQHDGNRYVNTWGVFIVESPDGQWCNWSIQRVQYLNDRQMIALVFPSQHISDIWEEWVKIGKPMPYALVQGCEPIVPYIAGLPLLERNVNEAEYIGALYGKGIEVVKCETHDLRVPASSEVVIEGYFAITREGVEGPFGEFAGYTDNEPSLQPILSITAISWQDDPIWPVVAEGKPVDEYHTCTGIGDAAAIQNVLLTANLPVSFVWVPLYSACHLMIVSINRHWRQTHPDLTSEQLTKKVGDVIHQTRMSIKLPKIVVLDDDVDPADTESLLWALATRIHPVFKRYFYESNIFPWLNCYSEEERHNRKGKRVIIDALLPENTGTISSFDYAYPDDIKQRVLMHWETDFSHD
B2: N287T-N388M-K394R-C430N-L432F-L434W-S436N (protein)
chain: B1 chain with T283I, D284P, P287T, T322S, K394R, V421E, F422R, T461H, T463A
B3: I283T-N285P-N287T-Q290E-S322T-N388M-K394R-C430V-L432F-L434W-S436N-dG462 (protein)
chain: B1 chain with D284P, N285P, P287T, Q290E, K394R, V421E, F422R, N430V, T461H, T463A
B4: N287R-N388M-K394R-C430N-L432F-L434W-S436N (protein)
chain: B1 chain with T283I, D284P, P287R, T322S, K394R, V421E, F422R, T461H, T463A
B5: I283T-N285P-N287T-Q290E-S322T-N388M-K394R-R422D-C430A-L432F-L434W-S436N-dG462 (protein)
chain: B1 chain with D284P, N285P, P287T, Q290E, K394R, V421E, F422D, N430A, T461H, T463A
B6: I283T-P284D-i284aP-N287P-S322T-N388M-C430N-L432F-L434W-S436N-H461A-dG462 (protein)
chain: B1 chain with V421E, F422R, T461A, T463A
B7: I283T-P284D-i284aP-N287P-S322T-N388M-C430N-L432F-L434W-S436N-H461A-dG462-A463T (protein)
chain: B1 chain with V421E, F422R, T461A
B8: I283T-N285P-N287T-Q290E-S322T-N388M-K394R-C430A-L432F-L434W-S436N-dG462-A463V (protein)
chain: B1 chain with D284P, N285P, P287T, Q290E, K394R, V421E, F422R, N430A, T461H, T463V
B9: I283T-P284D-i284aP-N287P-S322T-N388M-E421V-R422F-C430N-L432F-L434W-S436N-H461T-dG462 (protein)
chain: B1 chain with T463A
B10: N287Q-N388M-K394R-C430N-L432F-L434W-S436N (protein)
chain: B1 chain with T283I, D284P, P287Q, T322S, K394R, V421E, F422R, T461H, T463A
B11: I283T-N285P-N287T-Q290E-S322T-N388M-K394R-C430A-L432F-L434W-S436N-dG462-A463F (protein)
chain: B1 chain with D284P, N285P, P287T, Q290E, K394R, V421E, F422R, N430A, T461H, T463F
B12: E126K-H141Q-I283T-N285P-N287T-Q290E-S322T-N388M-K394R-C430A-L432F-L434W-S436N-dG462 (protein)
chain: MFLKSLREQINLLKRQGDLRIINRPVDSYLEAAAIIRRSTETKAPVPLMTNIKGYPGCSIVGGLAALSSNPEYPLSRVAMSLGLSTTASAQSIVQYLIDGLKKTPYLPVEIDSNSAPCKQNILRGKDASLAHFPIPQVHQQDGNRYVNTWGVFIVESPDGQWCNWSIQRVQYLNDRQMIALVFPSQHISDIWEEWVKIGKPMPYALVQGCEPIVPYIAGLPLLERNVNEAEYIGALYGKGIEVVKCETHDLRVPASSEVVIEGYFAITREGVEGPFGEFAGYTPPETSLEPILSITAISWQDDPIWPVVAEGKPVDEYHTCTGIGDAAAIQNVLLTANLPVSFVWVPLYSACHLMIVSINRHWRQTHPDLTSEQLTKKVGDVIHQTRMSIKLPRIVVLDDDVDPADTESLLWALATRIHPERKRYFYESAIFPWLNCYSEEERHNRKGKRVIIDALLPENHGAISSFDYAYPDDIKQRVLMHWETDFSHD
B13: V227L-I283T-N285P-N287T-Q290E-S322T-N388M-K394R-C430A-L432F-L434W-S436N-dG462 (protein)
chain: B12 chain with K126E, Q141H, V227L
B14: I283T-N285P-N287T-Q290E-S322T-N388M-K394R-C430A-L432F-L434W-S436N-H444T-dG462 (protein)
chain: B12 chain with K126E, Q141H, H444T
B15: I283T-N285P-N287T-Q290E-S322T-N388M-K394R-C430A-L432F-L434W-S436N-H444F-dG462 (protein)
chain: B12 chain with K126E, Q141H, H444F
B16: I35V-Q140L-I283T-N285P-N287T-Q290E-S322T-N388M-K394R-C430A-L432F-L434W-S436N-dG462 (protein)
chain: B12 chain with I35V, K126E, Q140L, Q141H
B17: E224P-I283T-N285P-N287T-Q290E-S322T-N388M-K394R-C430A-L432F-L434W-S436N-dG462 (protein)
chain: B12 chain with K126E, Q141H, E224P
B18: L223Y-I283T-N285P-N287T-Q290E-S322T-N388M-K394R-C430A-L432F-L434W-S436N-dG462 (protein)
chain: B12 chain with K126E, Q141H, L223Y
B19: I283T-N285P-N287T-L289R-Q290E-S322T-N388M-K394R-C430A-L432F-L434W-S436N-dG462 (protein)
chain: B12 chain with K126E, Q141H, L289R
B20: L222V-I283T-N285P-N287T-Q290E-S322T-N388M-K394R-C430A-L432F-L434W-S436N-dG462 (protein)
chain: B12 chain with K126E, Q141H, L222V
B21: I283T-N285P-N287T-L289W-Q290E-S322T-N388M-K394R-C430A-L432F-L434W-S436N-dG462 (protein)
chain: B12 chain with K126E, Q141H, L289W
B22: I283T-N285P-N287T-Q290E-S322T-Q365T-N388M-K394R-C430A-L432F-L434W-S436N-dG462 (protein)
chain: B12 chain with K126E, Q141H, Q365T
B23: I283T-N285P-N287T-Q290E-S322T-N388M-K394R-K423G-C430A-L432F-L434W-S436N-dG462 (protein)
chain: B12 chain with K126E, Q141H, K423G
B24: I283L-N285P-N287T-Q290E-S322T-N388M-K394R-C430A-L432F-L434W-S436N-dG462 (protein)
chain: B12 chain with K126E, Q141H, T283L
B25: I283T-N285P-N287T-Q290E-S322T-N388M-K394R-C430A-L432F-L434W-S436N-dG462-A470S (protein)
chain: B12 chain with K126E, Q141H, A470S
B26: I283T-N285P-N287T-Q290E-S322T-N388M-K394R-C430A-L432F-L434W-S436N-dG462-Y471F (protein)
chain: B12 chain with K126E, Q141H, Y471F
B27: E224Q-I283T-N285P-N287T-Q290E-S322T-N388M-K394R-C430A-L432F-L434W-S436N-dG462 (protein)
chain: B12 chain with K126E, Q141H, E224Q
B28: I283T-N285P-N287T-Q290E-S322T-N388M-K394R-C430A-L432F-L434W-S436N-N460G-dG462 (protein)
chain: B12 chain with K126E, Q141H, N460G
B29: P184S-I283T-N285P-N287T-Q290E-S322T-N388M-K394R-C430A-L432F-L434W-S436N-dG462 (protein)
chain: B12 chain with K126E, Q141H, P184S
B30: I283T-N285P-N287T-L289C-Q290E-S322T-N388M-K394R-C430A-L432F-L434W-S436N-dG462 (protein)
chain: B12 chain with K126E, Q141H, L289C
B31: V227Y-I283T-N285P-N287T-Q290E-S322T-N388M-K394R-C430A-L432F-L434W-S436N-dG462 (protein)
chain: B12 chain with K126E, Q141H, V227Y
B32: I283T-N285P-N287T-Q290E-S322T-N388M-K394R-C430A-L432F-L434W-S436N-H444R-dG462 (protein)
chain: B12 chain with K126E, Q141H, H444R

Test system: 3-methylcrotonic acid
Format: biochemical, Yersinia frederiksenii
Parameters: key: “+” representing a low increase in activity; “++++” representing a high increase in activity

Molecule	Activity relative to WT
B1	++++
B2	+
B3	++++
B4	+
B5	++++
B6	++++
B7	++++
B8	++++
B9	++++
B10	+
B11	++++
B12	++++
B13	++++
B14	++++
B15	++++
B16	++++

Molecule	Activity relative to WT
B17	++++
B18	++++
B19	++++
B20	++++
B21	++++
B22	++++
B23	++++
B24	++++
B25	++++
B26	++++
B27	++++
B28	++++
B29	++++
B30	++++
B31	++++
B32	++++
